# From patent publication US20250197503A1 (published 2025)
# B1: h_Nb2 (expressed from pFUSE-hIgG1-Fc) (Fc fusion)
# chain: DVQLQESGGGLVQPGGSLRLSCAASGFTFGDRWMYWLRQAPGKGLEWVSSINPAGRSTYYADSVKGRFTISRDNAKNTLYLQMNSLKSEDTAVYYCTKDPGGYQKGQGTQVTVSS
# B2: h_Nb1 (expressed from pFUSE-hIgG1-Fc) (Fc fusion)
# chain: DVQLQESGGGLVQPGGSLRLSCAASGFTFSSYAMSWVRQAPGKGLEWVSDINSGGDNTDYADSVKGRFTISRDNAKNTLYLQMNSLKPEDTAVYYCARGPKLCFSSWGQGTQVTVSS
# Biological target: human PD-L1 on stably transfected cell line HEK293T/hPD-L1 (human, UniProt Q9NZQ7 19-290)
# Sequence (Q9NZQ7 19-290): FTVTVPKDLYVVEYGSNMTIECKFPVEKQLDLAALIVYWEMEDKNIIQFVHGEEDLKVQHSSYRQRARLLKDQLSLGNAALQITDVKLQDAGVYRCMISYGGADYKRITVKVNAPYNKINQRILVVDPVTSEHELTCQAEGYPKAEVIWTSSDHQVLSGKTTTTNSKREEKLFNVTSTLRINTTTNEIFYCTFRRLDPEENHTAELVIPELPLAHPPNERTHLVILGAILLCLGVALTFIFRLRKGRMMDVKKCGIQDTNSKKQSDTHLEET
# Test: FACS blocking of human PD-1/PD-L1 binding
row,Binder,IC50
1,B1,0.106 µg/mL
2,B2,0.751 µg/mL
